B1: Cnn (natural protein)
chain: MNSNRTSSSHNSRNLKILNASFDVPRPPGGGNSPLPSQGRSVRELEEQMSALRKENFNLKLRIYFLEEGQPGARADSSTESLSKQLIDAKIEIATLRKTVDVKMELLKDAARAISHHEELQRKADIDSQAIIDELQEQIHAYQMAESGGQPVENIAKTRKMLRLESEVQRLEEELVNIEARNVAARNELEFMLAERLESLTACEGKIQELAIKNSELVERLEKETASAESSNEAIDSLKVELEACRKENQDLVTSIRTLKHDMKRQVRSMKEAANTMDVQRQSILLLEATIKRKEKSCGSMQKNVLNYEALIAKLNAELETMRQQNVYFRELSENLQQKEVRQLDRGVAIVQPMRMTADAGRFVWQSGTIVAQEPLPLERQSAAATSNVSVSAVRLSSGPPPDQTYPVNGHDRAKYGLLQLFAAKLDWISAVPLALGHLALKIILLAMRLHSCLQNVHIPLRANRDLGAQLADKICELQEAQEKLKERERIHEQACRTIQKLMQKLSSQEKEIKKLNQENEQSANKENDCAKTVISPSSSGRSMSDNEASSQEMSTNLRVRYELKINEQEEKIKQLQTEVKKKTANLQNLVNKELWEKNREVERLTKLLANQQKTLPQISEESAGEADLQQSFTEAEYMRALERNKLLQRKVDVLFQRLADDQQNSAVIGQLRLELQQARTEVETADKWRLECVDVCSVLTNRLEELAGFLNSLLKHKDVLGVLAADRRNAMRKAVDRSLDLSKSLNMTLNITATSLADQSLAQLCNLSEILYTEGDASHKTFNSHEELHAATSMAPTVENLKAENKALKKELEKRRSSEGQRKERRSLPLPSQQFDNQSESEAWSEPDRKVSLARIGLDETSNSLAAPEQAISESESEGRTCATRQDRNRNSERIAQLEEQIAQKDERMLNVQCQMVELDNRYKQEQLRCLDITQQLEQLRAINEALTADLHAIGSHEEERMVELQRQLELKNQQIDQLKLAHSTLTADSQITEMELQALQQQMQEIEQLHADSVETLQSQLQKLKLDAVQQLEEHERLHREALERDWVALTTYQEQAQQLLELQRSLDYHQENEKELKQTLVENELATRALKKQLDESTLQASKAVMERTKAYNDKLQLEKRSEELRLQLEALKEEHQKLLQKRSNSSDVSQSGYTSEEVAVPMGPPSGQATTCKQAAAAVLGQRVNTSSPDLGIESDAGRISSVEVSNAQRAMLKTVEMKTEGSASPKAKSEESTSPDSKSNVATGAATVHDCAKVDLENAELRRKLIRTKRAFEDTYEKLRMANKAKAQVEKDIKNQILKTHNVLRNVRSNMENEL

This assay deals with Sas-4-NΔT GST (Drosophila) (UniProt Q9VI72). As to the kind of experiment: pull-down.
Regarding “Asl (from UniProt Q9VNE4 1-994) (natural protein)”, the fold amount pulled down relative to Sas-4-N amounted to 3 times.

Regarding Grip128 (natural protein), the fold amount pulled down relative to Sas-4-N worked out at 3 times.

Consider “γ-tubulin (from UniProt P23257 1-475) (natural protein)”, for which the fold amount pulled down relative to Sas-4-N is 3 times.

B1: the fold amount pulled down relative to Sas-4-N came out at 3 times.
